Source: patent US6063592A, “Kell protein proteolytic activity” (New York Blood Center, Inc., priority 1998, dated 2000)
Positions count from the first letter of the chain named. Numbers in names are those of the source. One block for each molecule: values may come before it. Residues, ends and D or L forms follow the SMILES beside them.

How the values were obtained:
[1] = molecular target: Big Endothelin-3 (1-41) (Homo sapiens)
[2] = molecular target: Big Endothelin-1 (1-38) (Homo sapiens)
Kell protein [3] = molecular target: T1, Kell protein (Homo sapiens, UniProt P23276); assay: Digestion of big endothelins with soluble recombinant Kell protein, HPLC analysis; format: biochemical; conditions: for cleavage by wild-type Kell and Jsa Kell: N-terminal sequencing and mass spectrometry of cleaved products, yields endothelins; for Km: measured by HPLC, read-out: substrate affinity for cleavage by Kell protein
T1 construct: placing the cDNA that encodes the extracellular portion of Kell in a baculovirus transfer vector pAcGP67-A; made in house; host or cells: sf9 insect cells, baculovirus (pAcGP67A), protein-containing culture medium
T1 sequence (P23276 68-732 limits assumed): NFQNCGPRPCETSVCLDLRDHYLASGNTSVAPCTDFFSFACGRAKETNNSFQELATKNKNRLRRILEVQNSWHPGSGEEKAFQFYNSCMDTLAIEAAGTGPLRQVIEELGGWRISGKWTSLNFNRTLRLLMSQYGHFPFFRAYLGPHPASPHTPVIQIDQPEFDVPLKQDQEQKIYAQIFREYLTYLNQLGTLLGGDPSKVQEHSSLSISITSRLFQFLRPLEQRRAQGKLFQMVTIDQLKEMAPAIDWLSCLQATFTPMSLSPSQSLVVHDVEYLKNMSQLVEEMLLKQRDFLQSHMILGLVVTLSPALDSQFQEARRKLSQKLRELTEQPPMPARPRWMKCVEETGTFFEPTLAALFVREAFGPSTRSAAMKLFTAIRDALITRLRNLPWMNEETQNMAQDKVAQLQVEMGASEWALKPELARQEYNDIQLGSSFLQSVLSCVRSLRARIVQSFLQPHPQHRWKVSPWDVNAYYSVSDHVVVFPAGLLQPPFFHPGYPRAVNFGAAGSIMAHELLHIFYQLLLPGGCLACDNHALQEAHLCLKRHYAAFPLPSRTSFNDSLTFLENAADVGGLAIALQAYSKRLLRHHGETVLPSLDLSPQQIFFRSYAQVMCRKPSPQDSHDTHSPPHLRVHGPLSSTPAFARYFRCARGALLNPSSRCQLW
Protocol: Digestion of Big Endothelin-1,-2, and -3 (Big ET-1, -2, and -3) With Soluble Recombinant Proteins
Enzyme reaction mixture was made by mixing 8-16 μl of 1 mg/ml big ET-1 (1-38), big ET-2 (1-37 or 1-38) and big ET-3 (1-41) (American Peptide Co., Sunnyvale, Calif. and Sigma, St. Louis, Mo. and Peptide Institute, Inc., Osaka, Japan), 10 μl 1 mM ZnCl2 final concentration 86 μM and 70 μl recombinant protein containing media. The mixture was incubated at 37° C. for different time periods. Twenty to 25 aliquots of this incubation mix was assayed by reverse HPLC. The conditions of the analysis were:
Solvent A: 0.1% TFA/2,5% 1-Propanol (PrOH)/H2 O (500 μl
Trifluoroacetic acid+1 L H2 O+25 ml 1-PrOH).
Solvent B; 0.09% TFA/2.5% 1-PrOH/90% Acetonitrile/H2 O (450 μl
TFA+1 L Acetonitrile+100 ml H2 O+25 ml 1-PrOH).
Gradient condition was 1-61% A In B over 0-60 minutes at a flow rate of 0.15 ml/min. The column used was reverse phase C18 column (2×150 mm, Vydac).

Kell protein [4] = assay: Inhibition of Kell proteolytic activity by phosphoramidon; format: biochemical, human
Kell protein [5] = molecular target: T1, Kell protein; assay: as above; format: biochemical; conditions: Kell protease; read-out: Concentration which gives 50% of inhibition
[6] = system: hematopoiesis cell culture system; assay: Hematopoiesis cell culture system grown on methyl cellulose plates; format: cell-based; conditions: preliminary studies
From the text: Meanwhile, the concentration of phosphoramidon needed to inhibit the proteolytic cleavage of big-endothelins by ECE-1 and Kell protein are different. While it is not intended to be bound by theory, it is possible that Kell participates in the proteolytic processing of growth factors or cytokines during hematopoiesis.

Kell protein [7] = molecular target: T2, Kell protein (Homo sapiens, UniProt P23276); assay: Bradykinin cleavage by Kell protein; format: biochemical
T2 sequence (P23276 1-732): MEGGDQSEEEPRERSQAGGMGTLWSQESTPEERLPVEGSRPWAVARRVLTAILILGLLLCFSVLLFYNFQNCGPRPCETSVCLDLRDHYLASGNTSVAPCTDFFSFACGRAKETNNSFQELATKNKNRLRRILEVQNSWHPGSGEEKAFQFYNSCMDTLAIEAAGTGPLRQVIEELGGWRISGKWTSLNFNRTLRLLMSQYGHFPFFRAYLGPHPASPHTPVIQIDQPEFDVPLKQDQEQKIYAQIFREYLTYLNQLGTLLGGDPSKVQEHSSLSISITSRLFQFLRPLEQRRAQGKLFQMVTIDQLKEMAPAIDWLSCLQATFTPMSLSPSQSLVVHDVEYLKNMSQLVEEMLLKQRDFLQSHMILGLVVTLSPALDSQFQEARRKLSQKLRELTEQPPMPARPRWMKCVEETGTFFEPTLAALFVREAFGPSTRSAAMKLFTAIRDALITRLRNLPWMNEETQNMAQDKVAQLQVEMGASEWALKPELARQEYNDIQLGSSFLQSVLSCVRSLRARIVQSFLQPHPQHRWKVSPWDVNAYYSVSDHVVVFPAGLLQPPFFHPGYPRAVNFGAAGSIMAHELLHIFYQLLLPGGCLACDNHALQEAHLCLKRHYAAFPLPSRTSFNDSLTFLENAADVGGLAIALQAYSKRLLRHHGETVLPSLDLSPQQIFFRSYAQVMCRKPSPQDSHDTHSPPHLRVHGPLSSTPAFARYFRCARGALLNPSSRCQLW

[8] = system: Soluble Kell proteins (sKell); assay: VIP cutting by sKell proteins; format: biochemical, human; conditions: sf9 protein free media containing sKell
From the text: Soluble Kell proteins (sKell) proteins were used to cut vasoactive intestinal peptide (VIP).

Kell protein [9] = molecular target: T1, Kell protein; assay: Digestion of big endothelins with soluble recombinant Kell protein, EIA assay; format: biochemical; conditions: measured by EIA; 15 min; read-out: substrate affinity for cleavage by Kell protein
Protocol: Enzyme reaction mix was made by mixing various amounts of 10 μM big ET's, 20 μl of 10 Kell assay buffer (0.5 M HEPES, 0.5 mM ZnCl2 and 1.5 NaCl containing 4% (v/v) of supernatant boiled BSA) and various amounts of soluble protein containing media (ranging from 0.0313 μl to 4 μl) and H2 O to make a total volume of 200 μl. The enzyme reaction was incubated at 37° C. for 15 min. At the end of the incubation time, 100 μl of 5 mM EDTA was added to terminate the reaction. Various amounts of the sample up to 100 μl were used in Enzyme-linked Immunoassay using Endothelin-1EIA kit (Cayman Chemical).

Kell protease = molecular target: T3, Kell protease (Homo sapiens, UniProt P23276); assay: pH optimum of Kell protease; format: biochemical
T3 sequence (P23276 1-732): T2 sequence (P23276 1-732)

cleavage of big endothelin-2; substrate affinity (HPLC) (Big Endothelin-2 (1-37)): 20 µM | cleavage of big endothelin-3; substrate affinity (EIA) [1]: < 2 µM | cleavage of big endothelin-1; substrate affinity (HPLC) [2]: 80 µM
Molecule: soluble wild type Kell (secreted form of wild-type Kell protein, extracellular portion, expressed in sf9 cells) (from UniProt P23276) (enzyme)

Molecule: big-endothelin-1: inactive 38 amino acid precursor of endothelin-1, substrate of Kell protein (CSCSSLMDKECVYFCHLDIIWVNTPEHVVPYGLGSPRS)
cleavage by wild-type Kell and Jsa Kell (Kell protein [3]): cleaved | Km (Kell protein [3]): ~80 µM

IC50 (Kell protein [5]): 50 to 100 µM
Molecule: CC(C)C[C@H](NP(=O)(O)O[C@@H]1O[C@@H](C)[C@H](O)[C@@H](O)[C@H]1O)C(=O)N[C@@H](Cc1c[nH]c2ccccc12)C(=O)O [Phosphoramidon]
inhibition of Kell enzymatic activity (Kell protein [4]): inhibited | effect on cell growth ([6]; higher concentration of phosphoramidon (50-100 μM)): inhibited cell growth | effect on cell growth ([6]; low concentration of phosphoramidon (3.5-7.0 μM)): increased cell growth

Molecule: NC(N)=NCCC[C@H](NC(=O)[C@H](Cc1ccccc1)NC(=O)[C@@H]1CCCN1C(=O)[C@H](CO)NC(=O)[C@H](Cc1ccccc1)NC(=O)CNC(=O)[C@@H]1CCCN1C(=O)[C@@H]1CCCN1C(=O)[C@@H](N)CCCN=C(N)N)C(=O)O [bradykinin] (H-RPPGFSPFR-OH)
cleavage by Kell protein (Kell protein [7]): does not cleave

Molecule: VIP: vasoactive intestinal peptide (1-28), a vasodilator (HSDAVFTDNYTRLRKQMAVKKYLNSILN)
cleavage of VIP by soluble Kell [8]: cleaves | cleavage of VIP by soluble Kell ([8]; listed as vasoactive intestinal peptide (VIP)): cleaved

Molecule: big-endothelin-2: inactive precursor of endothelin-2, substrate of Kell protein (CSCSSWLDKECVYFCHLDIIWVNTPEQTAPYGEGNPP)
cleavage by wild-type Kell and Jsa Kell (Kell protein [3]): cleaved | Km (Kell protein [3]): ~20 µM

Molecule: big-endothelin-3: inactive precursor of endothelin-3, substrate of Kell protein (CTCFTYKDKECVYYCHLDIIWVNTPEQTVPYGLSNYRGSFR)
cleavage by wild-type Kell and Jsa Kell (Kell protein [3]): cleaved | Km (Kell protein [9]): < 2000 nM

pH optimum (Kell protease): 6.0-6.5
B1: Kell protease: secreted recombinant wild-type human Kell blood group protein expressed in sf9 cells (protein)
chain: T1 sequence (P23276 68-732 limits assumed)

B2: Jsa: secreted form of Js^a Kell phenotype (L597P) (protein)
chain: T1 sequence (P23276 68-732 limits assumed) with L530P
cleavage of VIP by soluble Kell [8]: cleaves more than wild type Kell
